Test results taken from patent US11278600B2, “Human alpha-galactosidase variants” (Codexis, Inc., priority 2014, dated 2022).
Substitutions are numbered along the chain they refer to.

B1: 265 (protein)
chain: LDNGLARTPTMGWLHWERFMCNLDCQEEPDSCISEKLFMEMAELMVSEGWKDAGYEYLCIDDCWMAPQRDSEGRLQADPQRFPHGIRQLANYVHSKGLKFGIYADVGNKTCAGFPGSFGYYDIDAQTFADWGVDLLKFDGCYCDSLENLADGYKHMSLALNRTGRSIVYSCEWPLYMWPFQKPNYTEIRQYCNHWRNFADIDDSWASIKSILDWTSFNQEKIVDVAGPGGWNDPDMLVIGNFGLSWNQQVTQMALWAIMAAPLFMSNDLRHISPQAKALLQDKDVIAINQDPLGKQGYQLRQGDNFEVWERPLSGLAWAVAMINRQEIGGPRSYTIAVASLGKGVACNPACFITQLLPVKRKLGFYEWTSRLKSHVNPTGTVLLQLENTMQMSLKDLL
modifications: Synthetic Polypeptide sequence of Variant No. 265 of mature Human GLA
B2: 271 (protein)
chain: B1 chain with L44R, F100L, E187G, K221R, A337P, A350G, K373R, V376I
modifications: Synthetic Polypeptide sequence of Variant No. 271 of mature Human GLA
B3: 268 (protein)
chain: B1 chain with K221R
modifications: Synthetic Polypeptide sequence of Variant No. 268 of mature Human GLA
B4: 269 (protein)
chain: B1 chain with L37I, F100L, N247D, M322I, V376I
modifications: Synthetic Polypeptide sequence of Variant No. 269 of mature Human GLA
B5: 267 (protein)
chain: B1 chain with K221T, N247D, Q302K, K343D, F365L, V376I
modifications: Synthetic Polypeptide sequence of Variant No. 267 of mature Human GLA
B6: 273 (protein)
chain: B1 chain with L44R, F100L, K221R, E367D, T369D, K373R, V376I
modifications: Synthetic Polypeptide sequence of Variant No. 273 of mature Human GLA
B7: 272 (protein)
chain: B1 chain with L44R, F100L, K221R, K373R, V376I
modifications: Synthetic Polypeptide sequence of Variant No. 272 of mature Human GLA
B8: 270 (protein)
chain: B1 chain with L44R, F100L, C143Y, K221R, A337P, A350G, K373R, V376I
modifications: Synthetic Polypeptide sequence of Variant No. 270 of mature Human GLA
B9: 266 (protein)
chain: B1 chain with K221T, M322I, K343E, F365L, V376I
modifications: Synthetic Polypeptide sequence of Variant No. 266 of mature Human GLA
B10: 274 (protein)
chain: B1 chain with L44R, F100L, F217R, K221R, A350G, K373R, V376I
modifications: Synthetic Polypeptide sequence of Variant No. 274 of mature Human GLA

Experiment: HTP-analysis of supernatants pretreated with base (MUGal hydrolysis)
Assay type: biochemical
Conditions: challenge at pH 7.6; activity of the variant/activity of Rd2BB (SEQ ID NO: 10); yeast culture supernatant
Procedure, shortened: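 GLA variants secreted from yeast INVSc1; culture supernatants pre-incubated with McIlvaine buffer pH 7.0–8.2 or 200 mM bicarbonate pH 9.1–9.7 at 37° C. for 1–18 h. Residual activity: MUGal (4 mM stock) hydrolysis at pH 4.3–4.8, 37° C., 30–180 min, carbonate quench; fluorescence Ex 355/Em 448 nm.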

Row | Molecule | Relative Activity of GLA Variants After Challenge at pH 7.6
1 | B1 | + (+ = 0.5 to 1.5 relative activity over Rd2BB (SEQ ID NO: 10))
2 | B2 | + (+ = 0.5 to 1.5 relative activity over Rd2BB (SEQ ID NO: 10))
3 | B3 | + (+ = 0.5 to 1.5 relative activity over Rd2BB (SEQ ID NO: 10))
4 | B4 | + (+ = 0.5 to 1.5 relative activity over Rd2BB (SEQ ID NO: 10))
5 | B5 | +++ (+++ = >2.5 relative activity over Rd2BB (SEQ ID NO: 10))
6 | B6 | + (+ = 0.5 to 1.5 relative activity over Rd2BB (SEQ ID NO: 10))
7 | B7 | + (+ = 0.5 to 1.5 relative activity over Rd2BB (SEQ ID NO: 10))
8 | B8 | + (+ = 0.5 to 1.5 relative activity over Rd2BB (SEQ ID NO: 10))
9 | B9 | +++ (+++ = >2.5 relative activity over Rd2BB (SEQ ID NO: 10))
10 | B10 | + (+ = 0.5 to 1.5 relative activity over Rd2BB (SEQ ID NO: 10))

Experiment: HTP-analysis of supernatants pretreated with bovine serum (MUGal hydrolysis)
Assay type: biochemical
Conditions: activity of the variant/activity of Rd2BB (SEQ ID NO: 10), yeast culture supernatant
Procedure, shortened: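 Yeast INVSc1 culture supernatants containing secreted GLA variants were mixed with bovine serum (20:80) and held 1 h at 37° C. Serum-treated samples then reacted with MUGal (4 mM stock) in citrate/McIlvaine buffer (pH 4.3/4.8) for 180 min at 37° C., were quenched with sodium carbonate, and read by fluorescence (Ex 355, Em 448 nm).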

Row | Molecule | Relative Activity of GLA Variants After Challenge with Serum
11 | B1 | + (+ = 0.5 to 1.5 relative activity over Rd2BB (SEQ ID NO: 10))
12 | B2 | + (+ = 0.5 to 1.5 relative activity over Rd2BB (SEQ ID NO: 10))
13 | B3 | + (+ = 0.5 to 1.5 relative activity over Rd2BB (SEQ ID NO: 10))
14 | B4 | + (+ = 0.5 to 1.5 relative activity over Rd2BB (SEQ ID NO: 10))
15 | B5 | +++ (+++ = >2.5 relative activity over Rd2BB (SEQ ID NO: 10))
16 | B6 | + (+ = 0.5 to 1.5 relative activity over Rd2BB (SEQ ID NO: 10))
17 | B7 | + (+ = 0.5 to 1.5 relative activity over Rd2BB (SEQ ID NO: 10))
18 | B8 | + (+ = 0.5 to 1.5 relative activity over Rd2BB (SEQ ID NO: 10))
19 | B9 | ++ (++ = 1.5 to 2.5 relative activity over Rd2BB (SEQ ID NO: 10))
20 | B10 | + (+ = 0.5 to 1.5 relative activity over Rd2BB (SEQ ID NO: 10))

Experiment: HTP-analysis of yeast culture supernatants, no challenge (MUGal hydrolysis)
Assay type: biochemical
Conditions: activity of the variant/activity of Rd2BB (SEQ ID NO: 10), yeast culture supernatant
Procedure, shortened: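 GLA variants were expressed in INVSc1 yeast grown in SD-Ura broth with glucose at 30° C., and culture supernatants were collected after 66-84 h. Supernatant was mixed with McIlvaine buffer pH 4.8 and MUGal (2 mM stock) in 50 mM citrate, 200 mM KCl, pH 4.6, incubated at 37° C. for 30-180 minutes, then quenched with sodium carbonate.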

Row | Molecule | Relative Activity of GLA Variants After No Challenge (NC)
21 | B1 | + (+ = 0.5 to 1.5 relative activity over Rd2BB (SEQ ID NO: 10))
22 | B2 | − (− = <0.5 relative activity over Rd2BB (SEQ ID NO: 10))
23 | B3 | + (+ = 0.5 to 1.5 relative activity over Rd2BB (SEQ ID NO: 10))
24 | B4 | − (− = <0.5 relative activity over Rd2BB (SEQ ID NO: 10))
25 | B5 | +++ (+++ = >2.5 relative activity over Rd2BB (SEQ ID NO: 10))
26 | B6 | + (+ = 0.5 to 1.5 relative activity over Rd2BB (SEQ ID NO: 10))
27 | B7 | + (+ = 0.5 to 1.5 relative activity over Rd2BB (SEQ ID NO: 10))
28 | B8 | + (+ = 0.5 to 1.5 relative activity over Rd2BB (SEQ ID NO: 10))
29 | B9 | ++ (++ = 1.5 to 2.5 relative activity over Rd2BB (SEQ ID NO: 10))
30 | B10 | + (+ = 0.5 to 1.5 relative activity over Rd2BB (SEQ ID NO: 10))

Experiment: HTP-analysis of supernatants pretreated with acid (MUGal hydrolysis)
Assay type: biochemical
Conditions: challenge at pH 4.2; activity of the variant/activity of Rd2BB (SEQ ID NO: 10); yeast culture supernatant
Procedure, shortened: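 MUGal hydrolysis was tracked by fluorescence (Ex 355 nm, Em 448 nm) after a 30-180 min reaction at 37° C. in pH 4.8 McIlvaine/citrate buffer, stopped with 1 M sodium carbonate. Beforehand, yeast (INVSc1) culture supernatants carrying GLA variants were held 1-3 h at 37° C. in acidic McIlvaine buffer, pH 3.3-4.3.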

Row | Molecule | Relative Activity of GLA Variants After Challenge at pH 4.2
31 | B1 | + (+ = 0.5 to 1.5 relative activity over Rd2BB (SEQ ID NO: 10))
32 | B2 | + (+ = 0.5 to 1.5 relative activity over Rd2BB (SEQ ID NO: 10))
33 | B3 | + (+ = 0.5 to 1.5 relative activity over Rd2BB (SEQ ID NO: 10))
34 | B4 | + (+ = 0.5 to 1.5 relative activity over Rd2BB (SEQ ID NO: 10))
35 | B5 | +++ (+++ = >2.5 relative activity over Rd2BB (SEQ ID NO: 10))
36 | B6 | + (+ = 0.5 to 1.5 relative activity over Rd2BB (SEQ ID NO: 10))
37 | B7 | + (+ = 0.5 to 1.5 relative activity over Rd2BB (SEQ ID NO: 10))
38 | B8 | + (+ = 0.5 to 1.5 relative activity over Rd2BB (SEQ ID NO: 10))
39 | B9 | ++ (++ = 1.5 to 2.5 relative activity over Rd2BB (SEQ ID NO: 10))
40 | B10 | + (+ = 0.5 to 1.5 relative activity over Rd2BB (SEQ ID NO: 10))
